Experimental findings from PMC7481934 (Nature, 2020) are described below.

Sequences and labels used below:
T1: 6His-Lge1-StrepII (S. cerevisiae, UniProt Q02796 1-332)
T1 sequence (looked up): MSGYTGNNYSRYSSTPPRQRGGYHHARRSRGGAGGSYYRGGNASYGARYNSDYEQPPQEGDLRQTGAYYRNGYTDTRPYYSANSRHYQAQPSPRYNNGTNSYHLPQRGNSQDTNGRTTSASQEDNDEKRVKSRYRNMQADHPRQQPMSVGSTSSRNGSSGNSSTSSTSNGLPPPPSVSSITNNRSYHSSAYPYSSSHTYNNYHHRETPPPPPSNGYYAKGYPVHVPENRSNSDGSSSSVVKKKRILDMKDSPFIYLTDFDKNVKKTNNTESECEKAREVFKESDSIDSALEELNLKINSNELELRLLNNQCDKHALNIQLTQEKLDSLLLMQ

T2: StrepII-mGFP-Bre1 (S. cerevisiae, UniProt Q07457 1-700)
T2 sequence (looked up): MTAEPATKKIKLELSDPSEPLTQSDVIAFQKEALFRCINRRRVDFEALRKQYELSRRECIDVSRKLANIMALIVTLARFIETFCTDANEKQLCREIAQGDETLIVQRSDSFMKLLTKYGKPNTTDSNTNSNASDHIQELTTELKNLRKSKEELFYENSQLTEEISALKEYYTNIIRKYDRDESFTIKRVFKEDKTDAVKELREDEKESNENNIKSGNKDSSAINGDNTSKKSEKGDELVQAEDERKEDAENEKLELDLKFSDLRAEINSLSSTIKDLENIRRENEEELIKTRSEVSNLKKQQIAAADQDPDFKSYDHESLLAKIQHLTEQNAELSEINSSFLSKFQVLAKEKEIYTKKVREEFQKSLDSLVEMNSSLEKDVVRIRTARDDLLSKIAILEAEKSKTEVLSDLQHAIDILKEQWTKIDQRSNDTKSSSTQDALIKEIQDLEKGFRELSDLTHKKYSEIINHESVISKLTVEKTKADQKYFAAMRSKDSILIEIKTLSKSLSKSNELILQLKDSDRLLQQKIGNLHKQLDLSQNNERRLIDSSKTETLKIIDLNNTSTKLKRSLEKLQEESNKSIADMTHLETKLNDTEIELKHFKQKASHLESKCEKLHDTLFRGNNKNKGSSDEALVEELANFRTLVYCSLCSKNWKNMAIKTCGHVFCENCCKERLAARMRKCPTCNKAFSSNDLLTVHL

T3: StrepII-Bre1 (S. cerevisiae, UniProt Q07457 1-700)
T3 sequence (looked up): T2 sequence (looked up)

B1: StrepII-Bre1 Lge1 Binding Domain (residues 308-632) (domain or fragment, S. cerevisiae, UniProt Q07457 308-632, looked up)
chain: QDPDFKSYDHESLLAKIQHLTEQNAELSEINSSFLSKFQVLAKEKEIYTKKVREEFQKSLDSLVEMNSSLEKDVVRIRTARDDLLSKIAILEAEKSKTEVLSDLQHAIDILKEQWTKIDQRSNDTKSSSTQDALIKEIQDLEKGFRELSDLTHKKYSEIINHESVISKLTVEKTKADQKYFAAMRSKDSILIEIKTLSKSLSKSNELILQLKDSDRLLQQKIGNLHKQLDLSQNNERRLIDSSKTETLKIIDLNNTSTKLKRSLEKLQEESNKSIADMTHLETKLNDTEIELKHFKQKASHLESKCEKLHDTLFRGNNKNKGSSD
B2: StrepII-mGFP-Bre1 LBD (domain or fragment, S. cerevisiae, UniProt Q07457 308-632, looked up)
chain: B1 chain
B3: GST-Lge1 IDR-StrepII (domain or fragment, S. cerevisiae, UniProt Q02796 1-242, looked up)
chain: MSGYTGNNYSRYSSTPPRQRGGYHHARRSRGGAGGSYYRGGNASYGARYNSDYEQPPQEGDLRQTGAYYRNGYTDTRPYYSANSRHYQAQPSPRYNNGTNSYHLPQRGNSQDTNGRTTSASQEDNDEKRVKSRYRNMQADHPRQQPMSVGSTSSRNGSSGNSSTSSTSNGLPPPPSVSSITNNRSYHSSAYPYSSSHTYNNYHHRETPPPPPSNGYYAKGYPVHVPENRSNSDGSSSSVVKK
B4: Pacific Blue-labelled 6His-TEV-Rad6 (enzyme, S. cerevisiae, UniProt P06104 1-172, looked up)
chain: MSTPARRRLMRDFKRMKEDAPPGVSASPLPDNVMVWNAMIIGPADTPYEDGTFRLLLEFDEEYPNKPPHVKFLSEMFHPNVYANGEICLDILQNRWTPTYDVASILTSIQSLFNDPNPASPANVEAATLFKDHKSQYVKRVKETVEKSWEDDMDDMDDDDDDDDDDDDDEAD
modifications: Pacific Blue C5-Maleimide label
B5: GST-Lge1 CC-StrepII (domain or fragment, S. cerevisiae, UniProt Q02796 243-332, looked up)
chain: KRILDMKDSPFIYLTDFDKNVKKTNNTESECEKAREVFKESDSIDSALEELNLKINSNELELRLLNNQCDKHALNIQLTQEKLDSLLLMQ
B6: GST-Lge1-StrepII (natural protein, S. cerevisiae, UniProt Q02796 1-332, looked up)
chain: T1 sequence (looked up)

Data set [1] concerns the target B6. Nature of the data set: pull-down.
For data set [2], the target named is T1, 6His-Lge1-StrepII. Nature of the data set: recruitment to reconstituted condensates.
Data set [3] deals with the molecule itself. The data set can be described thus: co-sedimentation.
The target of data set [4] is T2, StrepII-mGFP-Bre1. Nature of the data set: recruitment to reconstituted condensates.
Data set [5] concerns the target T3, StrepII-Bre1. The data set can be described thus: pull-down.

For B1, the binding result in data set [1] was “binds”. Consider B2, for which, in data set [2], the binding result is “binds”.

For the molecule B3, the binding result in data set [3] is on record as “binds”. Take B4: the binding result in data set [4] was “binds”. In the case of B5, in data set [5], the binding result is recorded as “binds”. For B6, in data set [5], the binding result is given as “binds”.
